Assay in all cases: SPR, antibody on GLC chip, SIRP as analyte
A general note: Surface plasmon resonance follows binding to a sensor surface in real time, without labels.

The target of one assay is T1, Human SIRPβ (human, UniProt O00241 30-148).
T1 construct: Soluble analyte in SPR
As for the experimental part:
(§1) The running buffer was PBS pH 7.4 with 0.01% TWEEN-20 (PBST+). All analytes were used at their nominal concentrations as determined by A280 absorbance and using their molar calculated extinction coefficient. Analytes were injected in a “one-shot” kinetic mode as described (see, e.g., Bravman et al., Anal. Biochem. 2006, 358, 281-288).
(§2) For the method using a GLC chip, the analytes were injected and flowed over anti-SIRPα antibodies immobilized (˜1000 RUs) on GLC chips using Proteon Amine Coupling Kit. For the immobilization step, the GLC chip was activated with EDAC/Sulpho-NHS 1:1 (Biorad) diluted 1/100 for 300 s at 25 μL/min. Anti-SIRPα antibodies were diluted to 80 nM concentration in 10 mM sodium acetate buffer pH 4.5 and immobilized to the chip at 30 μL/min for 50 s. Chip was inactivated with ethanolamine for 300 s at 25 μL/min. The analytes (e.g., SIRP-α from different species, SIRP-β, SIRP-γ) were injected in a “one-shot” kinetic mode at nominal concentrations of 100, 33, 11, 3.7, 1.2, and 0 nM. Association times were monitored for 90 s at 100 uL/min, and dissociation times were monitored for 1200 s. The surfaces were regenerated with a 2:1 v/v blend of Pierce IgG elution buffer/4M NaCl.
(§3) Biosensor data were double-referenced by subtracting the interspot data (containing no immobilized protein) from the reaction spot data (immobilized protein) and then subtracting the response of a buffer “blank” analyte injection from that of an analyte injection. Double-referenced data were fit globally to a simple Langmuir model and the KD value was calculated from the ratio of the apparent kinetic rate constants (KD=kd/kₐ).

A further assay concerns the target T2, SIRP-α cynomolgus (cynomolgus, UniProt A0A2K5VYQ9 31-148).
T2 construct: Soluble analyte in SPR; also called cynomologous monkey SIRP-α
T2 sequence: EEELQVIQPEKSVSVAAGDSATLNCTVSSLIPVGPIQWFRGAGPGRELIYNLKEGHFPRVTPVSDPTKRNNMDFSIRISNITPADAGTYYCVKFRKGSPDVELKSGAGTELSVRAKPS
As for the experimental part:
as §1, §2, §3

The target in another assay is T3, Human SIRPγ (human, UniProt Q9P1W8 29-147, limits assumed).
T3 construct: Soluble analyte in SPR
T3 sequence (Q9P1W8 29-147 limits assumed): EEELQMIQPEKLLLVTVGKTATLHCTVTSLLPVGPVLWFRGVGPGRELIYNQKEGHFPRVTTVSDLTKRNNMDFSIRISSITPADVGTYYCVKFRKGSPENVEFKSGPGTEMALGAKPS
As for the experimental part: as §1, §2, §3

The target of the next assay is T4, SIRP-α human v2 (human, UniProt P78324 31-149, limits assumed).
T4 construct: Soluble analyte in SPR
T4 sequence (P78324 other isoform, or with tags, fused parts or gaps limits assumed): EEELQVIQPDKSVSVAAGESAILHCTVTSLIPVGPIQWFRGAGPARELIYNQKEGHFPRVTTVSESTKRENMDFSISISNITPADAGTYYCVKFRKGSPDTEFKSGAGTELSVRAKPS
As to the method:
as §1, §2, §3

In a further assay the target is T5, SIRP-α mouse BL6 (mouse (BL6), UniProt P97797 32-150, limits assumed).
T5 construct: Soluble analyte in SPR
T5 sequence (looked up): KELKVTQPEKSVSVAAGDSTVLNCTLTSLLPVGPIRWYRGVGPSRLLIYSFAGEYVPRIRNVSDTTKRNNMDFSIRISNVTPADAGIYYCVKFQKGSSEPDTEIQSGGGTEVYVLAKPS
As to the method: as §1, §2, §3

Where a chain is given by its changes, count along the chain named.

T1 sequence (O00241 30-148): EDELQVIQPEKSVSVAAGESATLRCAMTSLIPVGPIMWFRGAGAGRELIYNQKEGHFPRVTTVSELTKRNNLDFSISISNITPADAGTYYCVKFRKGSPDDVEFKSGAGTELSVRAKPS

B1: Anti-SIRP-α antibody 135, light chain wt, heavy chain Mut_V34M (antibody, V domains shown)
VH: EVQLVESGGGVVQPGGSLRLSCAASGFSFSIYAMSWVRQAPGKGLEWVSTIGADDTYYADSVKGRFTISRDNSKNTLYLQMNSLRAEDTAVYYCAKDSTVGWSGDFFDYWGQGTLVTVSS
VL: EIVLTQSPATLSVSPGERVTFSCRASQNVRSDIAWYQQKPGQAPRLLIYAASSRDTGIPDRFSGSGSGTDFTLTISSLQSEDFGVYYCQQYYDWPPFTFGGGTKVEIK
notes: Whole antibody
On to B1, for which the Kd with Human SIRPβ stood at 0.16 nM; with SIRP-α cynomolgus, 0.08 nM; in the assay with Human SIRPγ, 0.53 nM; with SIRP-α human v2 it was 0.016 nM. For the same molecule, the binding result in the assay with SIRP-α mouse BL6 was “no binding (tested: 100 nM (highest analyte concentration))”.

B2: Anti-SIRP-α antibody 135, light chain Mut, heavy chain Mut (antibody, V domains shown)
VH: B1 VH with M34V
VL: B1 VL with F21L, D60A
notes: Whole antibody
As to B2, the Kd is 0.19 nM with Human SIRPβ, 0.13 nM with SIRP-α cynomolgus, 0.73 nM with Human SIRPγ and 0.018 nM with SIRP-α human v2. Besides, the binding result with SIRP-α mouse BL6 was “no binding (tested: 100 nM (highest analyte concentration))”.

B3: Hum1/AB21_HC_Mutall (antibody, V domains shown)
VH: EVQLVESGGGVVQPGGSLRLSCAASGFTFSSNAMSWVRQAPGKGLEWVAGISAGGSDTYYPASVKGRFTISRDNSKNTLYLQMNSLRAEDTAVYYCARETWNHLFDYWGQGTLVTVSS
VL: SYELTQPPSVSVSPGQTARITCSGGSYSSYYYAWYQQKPGQAPVTLIYSDDKRPSNIPERFSGSSSGTTVTLTISGVQAEDEADYYCGGYDQSSYTNPFGGGTKLTVL
notes: Whole antibody
As to B3, the Kd was determined as 0.0067 nM with Human SIRPβ; 0.029 nM with SIRP-α cynomolgus; 0.001 nM with Human SIRPγ; 0.0046 nM in the assay with SIRP-α human v2; 9.5 nM in the assay with SIRP-α mouse BL6.

Broadly, the Kd is the concentration at which binding is half-saturated. Read a high Kd as weaker binding.

These data come from patent publication US20220096649A1 (TALLAC THERAPEUTICS, published 2022).
